According to the Human Domainome abundance scans (Beltran et al. 2025):
± gives the uncertainty stated by the source.

B1: MEF2-activating motif and SAP domain-containing transcriptional regulator, residues 170 to 204; numbered along this chain, Q6ZN01 (parent)
chain: LKLEELTVSELRQQLRLRGLPVSGTKSMLLERMRG

Variants of: B1
Test: abundance fitness (aPCA) (normalised: wild type 0, dead -1); higher = more abundant; growth selection in yeast, the domain comes from the species named
Settings: Homo sapiens

In order of rising abundance fitness:
1. LKLEELVVSELRQQLRLRGLPVSGTKSMLLERMRG  -1.29 ± 0.13
2. LKLEELTVSEFRQQLRLRGLPVSGTKSMLLERMRG  -1.08 ± 0.34
3. LKLEELTVSECRQQLRLRGLPVSGTKSMLLERMRG  -1.03 ± 0.095
4. LKLEELTVSEWRQQLRLRGLPVSGTKSMLLERMRG  -0.897 ± 0.11
5. LKLEELTVSEERQQLRLRGLPVSGTKSMLLERMRG  -0.864 ± 0.13
6. LKLEELTVSELRQPLRLRGLPVSGTKSMLLERMRG  -0.863 ± 0.097
7. LKLEELTVSEHRQQLRLRGLPVSGTKSMLLERMRG  -0.811 ± 0.16
8. LKLEELLVSELRQQLRLRGLPVSGTKSMLLERMRG  -0.768 ± 0.099
9. LKLEELTVSELRQQRRLRGLPVSGTKSMLLERMRG  -0.712 ± 0.063
10. LKLEELTVSEARQQLRLRGLPVSGTKSMLLERMRG  -0.678 ± 0.11
11. LKLEELTVSEGRQQLRLRGLPVSGTKSMLLERMRG  -0.657 ± 0.063
12. LKLEELTQSELRQQLRLRGLPVSGTKSMLLERMRG  -0.648 ± 0.074
13. LKLEELTVSEPRQQLRLRGLPVSGTKSMLLERMRG  -0.64 ± 0.12
14. LKLEELTVSEKRQQLRLRGLPVSGTKSMLLERMRG  -0.623 ± 0.13
15. LKLEELTVSELRQQPRLRGLPVSGTKSMLLERMRG  -0.6 ± 0.12
16. LKLEELTVSELRQQDRLRGLPVSGTKSMLLERMRG  -0.599 ± 0.14
17. LKLEELMVSELRQQLRLRGLPVSGTKSMLLERMRG  -0.598 ± 0.16
18. LKLEELCVSELRQQLRLRGLPVSGTKSMLLERMRG  -0.594 ± 0.17
19. LKLEELTVSEVRQQLRLRGLPVSGTKSMLLERMRG  -0.59 ± 0.074
20. LKLEELTYSELRQQLRLRGLPVSGTKSMLLERMRG  -0.576 ± 0.15
21. LKLEELTVSEQRQQLRLRGLPVSGTKSMLLERMRG  -0.568 ± 0.1
22. LKLEELTVSERRQQLRLRGLPVSGTKSMLLERMRG  -0.565 ± 0.097
23. LKLEELTVSELRQDLRLRGLPVSGTKSMLLERMRG  -0.551 ± 0.07
24. LKLEELTVSESRQQLRLRGLPVSGTKSMLLERMRG  -0.542 ± 0.07
25. LKLEELAVSELRQQLRLRGLPVSGTKSMLLERMRG  -0.519 ± 0.18
26. LKLEELWVSELRQQLRLRGLPVSGTKSMLLERMRG  -0.518 ± 0.099
27. LKLEELTVSEYRQQLRLRGLPVSGTKSMLLERMRG  -0.497 ± 0.091
28. LKLEELTCSELRQQLRLRGLPVSGTKSMLLERMRG  -0.486 ± 0.49
29. LKLEELTHSELRQQLRLRGLPVSGTKSMLLERMRG  -0.486 ± 0.092
30. LKLEELHVSELRQQLRLRGLPVSGTKSMLLERMRG  -0.48 ± 0.098
31. LKLEELTVSELRQQTRLRGLPVSGTKSMLLERMRG  -0.43 ± 0.089
32. LKLEELTGSELRQQLRLRGLPVSGTKSMLLERMRG  -0.429 ± 0.06
33. LKLEELTVSELRQFLRLRGLPVSGTKSMLLERMRG  -0.401 ± 0.13
34. LKLEELTVSELRQQGRLRGLPVSGTKSMLLERMRG  -0.391 ± 0.058
35. LKLEELTPSELRQQLRLRGLPVSGTKSMLLERMRG  -0.39 ± 0.091
36. LKLEELTNSELRQQLRLRGLPVSGTKSMLLERMRG  -0.387 ± 0.14
37. LKLEELTDSELRQQLRLRGLPVSGTKSMLLERMRG  -0.38 ± 0.073
38. LKLEELTVSELRQQERLRGLPVSGTKSMLLERMRG  -0.38 ± 0.099
39. LKLEELTVSELRQQVRLRGLPVSGTKSMLLERMRG  -0.37 ± 0.073
40. LKLEELTVSELRQQKRLRGLPVSGTKSMLLERMRG  -0.361 ± 0.099
41. LKLEELEVSELRQQLRLRGLPVSGTKSMLLERMRG  -0.347 ± 0.072
42. LKLEELTVSELRQQQRLRGLPVSGTKSMLLERMRG  -0.339 ± 0.096
43. LKLEELQVSELRQQLRLRGLPVSGTKSMLLERMRG  -0.336 ± 0.07
44. LKLEELTVSEMRQQLRLRGLPVSGTKSMLLERMRG  -0.331 ± 0.32
45. LKLEELTRSELRQQLRLRGLPVSGTKSMLLERMRG  -0.309 ± 0.063
46. LKLEELTVSELRQQNRLRGLPVSGTKSMLLERMRG  -0.308 ± 0.14
47. LKLEELTSSELRQQLRLRGLPVSGTKSMLLERMRG  -0.28 ± 0.068
48. LKLEELNVSELRQQLRLRGLPVSGTKSMLLERMRG  -0.249 ± 0.4
49. LKLEELPVSELRQQLRLRGLPVSGTKSMLLERMRG  -0.227 ± 0.15
50. LKLEELTVSELRQQSRLRGLPVSGTKSMLLERMRG  -0.215 ± 0.091
51. LKLEELTMSELRQQLRLRGLPVSGTKSMLLERMRG  -0.206 ± 0.17
52. LKLEELTVSEIRQQLRLRGLPVSGTKSMLLERMRG  -0.206 ± 0.11
53. LKLEELGVSELRQQLRLRGLPVSGTKSMLLERMRG  -0.199 ± 0.054
54. LKLEELTVSELRQHLRLRGLPVSGTKSMLLERMRG  -0.192 ± 0.095
55. LKLEELTVSELRQQMRLRGLPVSGTKSMLLERMRG  -0.185 ± 0.16
56. LKLEELKVSELRQQLRLRGLPVSGTKSMLLERMRG  -0.184 ± 0.097
57. LKLEELTVSELRQKLRLRGLPVSGTKSMLLERMRG  -0.175 ± 0.35
58. LKLEELTVSELRQRLRLRGLPVSGTKSMLLERMRG  -0.174 ± 0.053
59. LKLEELTVSELRQWLRLRGLPVSGTKSMLLERMRG  -0.141 ± 0.084
60. LKLEELDVSELRQQLRLRGLPVSGTKSMLLERMRG  -0.111 ± 0.2
61. LKLEELTLSELRQQLRLRGLPVSGTKSMLLERMRG  -0.099 ± 0.055
62. LKLEELSVSELRQQLRLRGLPVSGTKSMLLERMRG  -0.071 ± 0.065
63. LKLEELTKSELRQQLRLRGLPVSGTKSMLLERMRG  -0.066 ± 0.11
64. LKLEELTWSELRQQLRLRGLPVSGTKSMLLERMRG  -0.03 ± 0.18
65. LKLEELTVSELRQMLRLRGLPVSGTKSMLLERMRG  0.023 ± 0.063
66. LKLEELTESELRQQLRLRGLPVSGTKSMLLERMRG  0.026 ± 0.072
67. LKLEELTVSELRQQARLRGLPVSGTKSMLLERMRG  0.11 ± 0.068
68. LKLEELTVSELRQALRLRGLPVSGTKSMLLERMRG  0.135 ± 0.084
69. LKLEELTASELRQQLRLRGLPVSGTKSMLLERMRG  0.142 ± 0.093
70. LKLEELTVSELRQQCRLRGLPVSGTKSMLLERMRG  0.149 ± 0.065
